This data set deals with the molecule itself. The experiment in a line: native gel or EMSA; ICAR-purified α-his subunits alone (10 or 20 μg) on nondenaturing 4–15% or 5–10% gradient gels, 55 V, 4 °C; self-assembly into single and double α-rings. On the technique in general: In EMSA bound probe runs differently from free probe, usually more slowly.

B1: Methanococcus maripaludis S2 20S proteasome α subunit, C-terminally hexahistidine-tagged, wild type (natural protein, UniProt Q6M0L9 1-259, looked up)
chain: MQQMVPASGYDRAITIFSPEGRLYQVEYAREAVRRGTTAVGIKCKDGVVLAVDRRITSKLIDVSSIEKIFQIDDHIVAATSGLVADARVLIDRARIEAQMNRVSYGEAITVEALAKKICDIKQAYTQHGGARPFGLALLITGIDRHSARLFETDPSGALIEYKATAIGSGRPIAMEVLESKYDENMTVSEGMELALYALSKTTEELKPENIDMAIIKDSGKLVEKISVDEIEKIVKAVYEKVKAEEEEAEKNKGEEDSE
notes: Proteasome subunit alpha of Methanococcus maripaludis S2, cloned by PCR from genomic DNA; expected Mr of α-his 29.5 kDa; Exists as single rings (SR), double rings (DR) and non-ring species; also called α-his; WT α; source: also Sephacryl S-300 fractions; also in lysate (lysate mixing) or coexpressed with β subunits; not shown: His6, C-terminal, kept
On to B1, for which the binding result was “binds”.

These data come from publication PMC4541365, “Alpha-ring Independent Assembly of the 20S Proteasome” (Scientific Reports, 2015).
